Among the data in patent publication US10442850 are half-life of activated FVIII cofactor activity after thrombin activation (purified component Xase assay or clotting assay) (fold (against hFVIII)) and half-life of activated FVIII (Xase assay, A2-domain stability) (fold (against WT hBFVIII)) values, retold here.

For experiment [1], the target named is A1/A3-C1-C2 part of thrombin-activated cFVIII-BDD (canine) (UniProt O18806). In words: cell-based or functional assay.
In experiment [2] the target is A1/A3-C1-C2 part of thrombin-activated human FVIII-BDD R1645H (human) (UniProt P00451). In words: cell-based or functional assay.
UniProt P00451, sequence (P00451 20-391, chain 1 of 2): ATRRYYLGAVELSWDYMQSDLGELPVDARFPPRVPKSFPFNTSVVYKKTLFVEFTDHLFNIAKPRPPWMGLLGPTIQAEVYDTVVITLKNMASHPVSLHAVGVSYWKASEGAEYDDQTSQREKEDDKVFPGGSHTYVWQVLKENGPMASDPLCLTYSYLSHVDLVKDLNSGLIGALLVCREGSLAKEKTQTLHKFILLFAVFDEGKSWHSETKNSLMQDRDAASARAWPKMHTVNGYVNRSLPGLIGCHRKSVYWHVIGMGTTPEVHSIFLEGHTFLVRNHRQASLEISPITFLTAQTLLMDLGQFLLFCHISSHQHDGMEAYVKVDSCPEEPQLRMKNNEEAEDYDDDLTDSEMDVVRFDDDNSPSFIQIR
UniProt P00451, sequence (P00451 1709-2351, chain 2 of 2): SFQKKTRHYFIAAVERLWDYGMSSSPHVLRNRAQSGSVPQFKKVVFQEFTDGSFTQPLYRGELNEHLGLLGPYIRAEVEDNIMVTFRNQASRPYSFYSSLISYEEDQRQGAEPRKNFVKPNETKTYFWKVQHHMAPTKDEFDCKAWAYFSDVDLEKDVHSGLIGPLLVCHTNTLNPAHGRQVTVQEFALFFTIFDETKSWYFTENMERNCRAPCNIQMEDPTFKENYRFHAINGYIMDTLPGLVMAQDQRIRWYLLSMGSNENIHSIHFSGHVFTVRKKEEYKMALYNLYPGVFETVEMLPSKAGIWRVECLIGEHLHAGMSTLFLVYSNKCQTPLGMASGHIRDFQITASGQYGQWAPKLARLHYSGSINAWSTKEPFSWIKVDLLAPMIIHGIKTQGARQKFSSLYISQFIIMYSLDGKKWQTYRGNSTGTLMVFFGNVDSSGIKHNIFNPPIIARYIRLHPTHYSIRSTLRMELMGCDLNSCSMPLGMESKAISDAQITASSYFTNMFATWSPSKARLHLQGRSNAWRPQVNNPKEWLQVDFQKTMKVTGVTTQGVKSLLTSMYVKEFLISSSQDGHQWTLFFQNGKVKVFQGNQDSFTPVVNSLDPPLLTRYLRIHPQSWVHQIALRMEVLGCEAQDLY

UniProt O18806, sequence (O18806 20-385, chain 1 of 2): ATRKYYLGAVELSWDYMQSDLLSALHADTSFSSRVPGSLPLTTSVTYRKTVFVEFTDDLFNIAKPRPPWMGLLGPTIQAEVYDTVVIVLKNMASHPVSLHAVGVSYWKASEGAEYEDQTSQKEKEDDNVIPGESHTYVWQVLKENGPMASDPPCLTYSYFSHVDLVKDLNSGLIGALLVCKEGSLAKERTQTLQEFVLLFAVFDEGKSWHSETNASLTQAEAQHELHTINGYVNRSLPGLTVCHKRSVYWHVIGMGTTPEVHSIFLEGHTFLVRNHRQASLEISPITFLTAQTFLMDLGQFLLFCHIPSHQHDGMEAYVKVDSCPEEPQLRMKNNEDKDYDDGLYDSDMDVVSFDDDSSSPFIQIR
UniProt O18806, sequence (O18806 1701-2343, chain 2 of 2): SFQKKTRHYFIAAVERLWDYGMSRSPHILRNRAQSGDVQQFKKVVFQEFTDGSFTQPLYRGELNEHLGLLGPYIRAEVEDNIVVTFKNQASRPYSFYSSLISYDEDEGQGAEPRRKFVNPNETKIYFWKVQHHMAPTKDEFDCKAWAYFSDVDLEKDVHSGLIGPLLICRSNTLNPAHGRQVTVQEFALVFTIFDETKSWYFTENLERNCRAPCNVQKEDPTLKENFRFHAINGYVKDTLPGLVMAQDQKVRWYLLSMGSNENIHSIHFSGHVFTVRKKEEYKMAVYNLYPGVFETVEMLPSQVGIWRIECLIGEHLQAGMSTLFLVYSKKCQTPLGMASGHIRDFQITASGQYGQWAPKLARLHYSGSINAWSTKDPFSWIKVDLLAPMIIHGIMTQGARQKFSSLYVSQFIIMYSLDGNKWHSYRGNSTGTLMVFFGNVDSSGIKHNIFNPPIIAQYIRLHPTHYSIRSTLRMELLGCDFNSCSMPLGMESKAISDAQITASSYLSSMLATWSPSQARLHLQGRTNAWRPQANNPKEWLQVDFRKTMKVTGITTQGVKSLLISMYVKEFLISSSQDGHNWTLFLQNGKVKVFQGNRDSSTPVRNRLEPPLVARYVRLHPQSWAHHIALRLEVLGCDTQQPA

For the substance “A2 domain of thrombin-activated cFVIII-BDD (from UniProt O18806 386-753)”, the half-life of activated FVIII cofactor activity after thrombin activation (purified component Xase assay or clotting assay) (fold (against hFVIII)) in experiment [1] was determined as 3.
On to “A2 domain of thrombin-activated human FVIII-BDD R1645H (from UniProt P00451 392-759)”, for which, in experiment [2], the half-life of activated FVIII (Xase assay, A2-domain stability) (fold (against WT hBFVIII)) stood at 3.
